Experiment [1] addresses Human PD-1 (soluble analyte, Octet RED 96) (human) (UniProt Q15116). As to the kind of experiment: Octet RED 96. (Biolayer interferometry detects binding as a change in optical thickness at a sensor tip.)
Experiment [2] addresses cynomolgus monkey PD-1 (soluble analyte, Octet RED 96) (UniProt B0LAJ3). As to the kind of experiment: Octet RED 96.
For experiment [3], the target named is human PD1 receptor on Jurkat-PD1-NFAT-Luc2 reporter cells (human) (UniProt Q15116). As to the kind of experiment: cell-based or functional assay.
human PD1 receptor on Jurkat-PD1-NFAT-Luc2 reporter cells (human), sequence (Q15116 25-288): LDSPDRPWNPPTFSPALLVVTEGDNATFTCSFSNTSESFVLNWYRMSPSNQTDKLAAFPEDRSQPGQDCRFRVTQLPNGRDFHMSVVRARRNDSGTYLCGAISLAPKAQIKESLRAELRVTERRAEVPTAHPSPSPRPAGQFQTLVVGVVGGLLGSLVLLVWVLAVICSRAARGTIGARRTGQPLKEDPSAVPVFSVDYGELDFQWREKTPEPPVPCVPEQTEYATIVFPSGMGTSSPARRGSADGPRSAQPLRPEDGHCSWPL
For a further experiment, the target named is FcgRIa. As to the kind of experiment: Octet RED 96.
The next experiment concerns the target FcgRIIIaV. As to the kind of experiment: Octet RED 96.
Another experiment concerns the target FcgRIIb. As to the kind of experiment: Octet RED 96.
In the next experiment the target is FcRn. As to the kind of experiment: Octet RED 96.
In another experiment the target is FcgRIIaH. As to the kind of experiment: Octet RED 96.

Human PD-1 (soluble analyte, Octet RED 96) (human), sequence (Q15116 25-167): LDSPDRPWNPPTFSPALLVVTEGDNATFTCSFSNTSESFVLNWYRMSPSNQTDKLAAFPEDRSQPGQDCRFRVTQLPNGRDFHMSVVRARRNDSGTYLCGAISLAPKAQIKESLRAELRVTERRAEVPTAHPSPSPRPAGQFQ

The term Kd denotes the constant that tells how readily two partners part at equilibrium. With BCD-100, the dissociation constant (Kd) in experiment [1] is 0.186 nM; in experiment [2], < 0.001 nM.

Turning to BCD-100 (antibody), the effective dose (ED50), reactivation of NFAT-luciferase luminescence in Jurkat-PD1-NFAT reporter line in experiment [3] came out at 115.

As to Nivolumab IgG4, the Kd with FcgRIa is 64 nM; with FcgRIIIaV, 4200 nM; with FcgRIIb, 280 nM; in the experiment with FcRn it was 9.52 nM; with FcgRIIaH it was 1600 nM.

As to Pembrolizumab IgG4, the equilibrium dissociation constant (Kd) with FcgRIa was found to be 50 nM; with FcgRIIIaV it was 5000 nM; with FcgRIIb, 2300 nM; in the experiment with FcRn, 5.1 nM; with FcgRIIaH, 1300 nM.

The record behind these values is patent US20190127478A1.
